Measurements: US20120035094A1

B1: F11R-peptide 1 (peptide)
peptide: SVTVHSSEPEVRIPENNPVKLSC
B2: F11R-peptide 4 (peptide)
peptide: KSVTREDTGTYTC

Tests used:
[1] = target: Monoclonal antibody M.Ab.F11; test: platelet adhesion to immobilized M.Ab.F11 (150 ng/well), BCA protein read-out; peptide at 50 µM
[2] = target: Monoclonal antibody M.Ab.F11; test: platelet adhesion to immobilized M.Ab.F11 (150 ng/well), BCA protein read-out; peptide at 500 µM

| % inhibition of the adhesion of platelets to immobilized M.Ab.F11 [1] [%] | % inhibition of the adhesion of platelets to immobilized M.Ab.F11 [2] [%] | Binder |
| --- | --- | --- |
| 60 | 70 | B1 |
| 10 | 70 | B2 |
